Laboratory results: the supplement of paper PMC10567573

B1: APBB1IP (parent)
chain: FNYSVGFKDLNESLNALEDQDLDA
B2: RBBP5 (parent)
chain: TGTSNTTAIKSIEFARKGSCFLIN

Variants of: B1
Experiment: protein stability index of a GFP-peptide fusion (GPS, HEK-293T) (PSI 1-6); higher = more stable
Conditions: c terminus: a fixed tail appended
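Further: lentivirally expressed fusions sorted by FACS into six bins by GFP to DsRed ratio, PSI derived from sequencing read proportions per bin multiplied by bin number.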

Protein stability index of substitutions, site by site:
L17: P 4.65 | K 4.48 | W 3.85 | V 4.68 | E 5.04 | F 4.43 | M 4.17 | I 4.68 | G 4.51 | R 5.01 | A 4.63 | T 5.18 | Y 3.96 | C 4.48 | S 4.78 | H 4.18 | N 5.02 | Q 4.88 | D 5.25
D19: Q 3.83 | I 3.86 | T 3.86 | N 4.04 | W 3.42 | P 3.65 | A 3.97 | F 3 | V 3.56 | H 3.7 | M 3.05 | C 4.06 | R 3.67 | E 4.53 | G 4.36 | K 4.5 | S 3.73 | L 3.53 | Y 3.93
E18: W 2.52 | G 3.96 | S 3.71 | R 2.87 | H 3.92 | V 3.35 | I 2.67 | Y 2.95 | F 2.79 | C 3.56 | T 3.44 | N 4.06 | P 4.51 | D 4.34 | L 3.24 | K 3.82 | Q 3.98 | M 3.59 | A 3.66
L14: C 3.86 | W 4.05 | I 4.71 | T 4.98 | F 4 | M 4.61 | R 4.57 | Y 4.49 | K 4.48 | S 4.47 | N 5.06 | Q 4.88 | H 5.1 | D 4.89 | G 4.9 | E 4.51 | P 4.76 | A 4.71 | V 4.5
D23: C 3.33 | Y 2.57 | P 4.38 | V 3.18 | E 4.22 | M 2.86 | H 3.69 | R 3.81 | N 4.31 | G 4.41 | T 3.85 | Q 4.22 | I 3.56 | F 2.44 | A 3.79 | L 3.14 | K 3.87 | W 1.81 | S 4.02
D21: F 2.34 | Q 3.75 | V 3.38 | R 3 | K 4.19 | S 4.33 | I 2.81 | N 4.07 | W 2.43 | M 3.83 | A 3.69 | L 2.8 | P 3.77 | Y 2.38 | E 4.25 | H 3.33 | T 4.14 | C 3.57 | G 3.94
L22: G 5.28 | Y 4.37 | K 4.86 | V 4.6 | S 4.76 | C 4.62 | P 4.92 | F 4.49 | A 5.06 | Q 4.67 | W 3.86 | E 5.45 | D 4.68 | T 4.82 | R 4.5 | M 4.72 | N 4.79 | I 4.74 | H 4.96
Q20: H 4.42 | T 4.84 | K 4.2 | W 3.7 | C 4.02 | D 4.4 | Y 3.85 | P 3.97 | N 4.53 | M 3.7 | V 4 | R 3.21 | A 4.42 | E 4.69 | F 3.57 | L 3.88 | I 3.97 | G 4.57 | S 3.97
A24: I 4.07 | F 3.85 | K 4.81 | P 4.42 | G 3.68 | R 3.83 | N 4.5 | T 4.45 | Y 3.55 | E 4.91 | V 4.5 | W 3.77 | C 4.24 | S 4.59 | M 3.85 | L 4.09 | Q 4.72 | H 4.52 | D 4.68
S13: D 4.31 | M 3.88 | R 4.15 | E 3.95 | A 4.56 | W 2.85 | Q 4.51 | T 3.72 | V 3.67 | L 2.83 | K 3.8 | N 4.17 | I 2.88 | C 4.25 | Y 3.54 | G 4.58 | H 4.51 | F 3.34 | P 4.41
A16: K 4.36 | L 4.04 | E 5.02 | P 4.33 | W 3.41 | I 4 | F 3.92 | G 3.94 | C 4.47 | M 4.1 | N 4.51 | Q 4.52 | D 4.6 | V 3.47 | H 4.37 | S 4.19 | R 4.14 | Y 3.93 | T 4.57
E12: N 4.37 | H 3.69 | F 3.63 | K 4.29 | W 2.8 | V 3.96 | L 3.23 | S 4.17 | R 3.92 | I 3.69 | G 4.2 | Q 4.28 | D 4.32 | M 3.87 | Y 3.12 | P 4.53 | T 4.24
N15: V 4.7 | E 4.14 | Q 4.28 | W 2.92 | Y 3.62 | T 4.78 | M 4.39 | I 4.01 | F 3.72 | C 4.32 | H 4.08 | D 4.77 | P 5 | A 4.44 | L 4.04 | S 4.15 | R 3.64 | G 4.78 | K 4.77

Variants of: B2
Experiment: as above
Conditions: c terminus: a fixed tail appended

Protein stability index of substitutions, site by site:
S4: W 1.83 | M 2.21 | K 2.67 | G 2.17 | F 1.97 | H 2.3 | R 1.91 | E 2.35 | A 2.29 | N 2.36 | L 2.17 | P 2.01 | Q 2.54 | C 2.2 | Y 2.41 | T 1.95 | V 2.09 | D 2.35 | I 2.52
N5: F 2.2 | C 1.93 | L 1.9 | E 2.57 | I 1.95 | P 2.08 | H 2.12 | Q 2.58 | A 2.1 | G 2.12 | K 2.15 | M 1.66 | D 2.35
T3: W 2.02 | K 2.9 | I 1.83 | V 1.87 | L 2.17 | E 2.55 | M 2.2 | F 1.61 | R 1.88 | G 2.24 | P 2.46 | H 2.52 | N 1.86 | A 2.15 | C 1.98 | Q 2.11 | D 2.46 | Y 1.94 | S 1.9
G2: F 1.76 | A 2.02 | Q 2.47 | C 2.17 | I 1.89 | P 2.63 | W 2.51 | R 2.07 | L 2.18 | N 2.29 | H 2.03 | M 2.48 | D 2.62 | T 2.14 | V 2.44 | K 2.31 | S 2.11 | E 2.75 | Y 3.22
T1: W 1.69 | Q 2.79 | R 2.75 | E 3.07 | C 1.53 | H 2.59 | A 2.15 | I 1.79 | L 2.11 | N 2.3 | G 2.19 | Y 1.79 | M 2.43 | V 1.87 | K 2.45 | F 1.88 | P 2.47 | D 3.69 | S 2.2
